The target of assay [1] is RON Sema (Glu25-Gly524) (human) (UniProt Q04912). Kind of assay: SPR; same sensorgrams as the kinetic analysis (RON constructs amine-coupled to CM5, MSPβ as analyte, 10 mM Na-HEPES pH 8.0, 150 mM NaCl, 0.005% P20, 25°C); Kd from an equilibrium model.
In assay [2] the target is RON Sema-PSI-IPT1 (Glu25-Glu683) (human) (UniProt Q04912). The assay is described as above.
In assay [3] the target is RON Sema-PSI (Glu25-Pro568) (human) (UniProt Q04912). The assay is described as above.
Assay [4] concerns the target RON Sema-PSI-IPT1–4 (Glu25-Ser956) (human) (UniProt Q04912). Described as above.
The target in assay [5] is RON Sema (Glu25-Gly524) (human) (UniProt Q04912). Put plainly: SPR; Biacore T100; RON constructs amine-coupled to a CM5 chip; MSPβ as analyte (wild type 5-500 nM, R689C 32-2000 nM); 10 mM Na-HEPES pH 8.0, 150 mM NaCl, 0.005% P20, 25°C; global fit to a 1:1 Langmuir kinetic model.
For assay [6], the target named is RON Sema-PSI-IPT1 (Glu25-Glu683) (human) (UniProt Q04912). The assay is described as above.
Assay [7] addresses RON Sema-PSI (Glu25-Pro568) (human) (UniProt Q04912). The assay is described as above.
Assay [8] concerns the target RON Sema-PSI-IPT1–4 (Glu25-Ser956) (human) (UniProt Q04912). The description is as above.
The target in assay [9] is RON constructs. Put plainly: SPR; dimeric MSPβ R689C on RON constructs; method and conditions not told in the sentence (SPR is the paper's only binding method).
The target of assay [10] is wild type MSPβ (macrophage stimulating protein β-chain with the adjoining 19 residues of the α-chain, … (human, UniProt P26927 465-711, C672S)). Kind of assay: SPR; solution competition.
Assay [11] has as its target MSPβ R689C (Phe465-Gly711, C672S, R689C) (human, UniProt P26927 465-711, C672S | R689C). Put plainly: SPR; solution competition.

On to “wild type MSPβ (macrophage stimulating protein β-chain with the adjoining 19 residues of the α-chain, Phe465-Gly711, C672S) (from UniProt P26927 465-711) (domain or fragment)”, for which the Kd in [1] was 16.4 nM; in [2] it was 17.8 nM; in assay [3], 32 nM; in [4] it was 22.6 nM; in assay [5], 13.3 nM; in assay [6], 15.1 nM. For the same molecule, the Kd in [7] came out at 21.2 nM; in [8], 13.5 nM. Moreover, the koff was 0.031 s⁻¹ in assay [5], 0.027 s⁻¹ in [6], 0.028 s⁻¹ in [7] and 0.023 s⁻¹ in assay [8]. Also, the kon was 2.31e+06 M⁻¹ s⁻¹ in [5], 1.76e+06 M⁻¹ s⁻¹ in [6], 1.33e+06 M⁻¹ s⁻¹ in assay [7] and 1.69e+06 M⁻¹ s⁻¹ in assay [8].
As to “MSPβ R689C (Phe465-Gly711, C672S, R689C) (from UniProt P26927 465-711) (domain or fragment)”, the Kd turned out to be 139 nM in assay [1]; 154 nM in [2]; 244 nM in assay [3]; 158 nM in [4]; 170 nM in assay [5]; 148 nM in assay [6]. Also, the Kd in assay [7] was 233 nM; in [8], 157 nM. Besides, the koff in assay [5] stood at 0.081 s⁻¹; in [6], 0.129 s⁻¹; in assay [7], 0.062 s⁻¹; in [8], 0.055 s⁻¹. In addition, the kon in assay [5] turned out to be 480000 M⁻¹ s⁻¹; in [6] it was 870000 M⁻¹ s⁻¹; in assay [7], 270000 M⁻¹ s⁻¹; in assay [8] it was 350000 M⁻¹ s⁻¹.
Consider “dimeric MSPβ R689C (from UniProt P26927 465-711) (complex)”, for which, in assay [9], the equilibrium dissociation constant (Kd) was 3.7 to 4.9 nM.

B1: RON Sema (Glu25-Gly524) (domain or fragment)
chain: EDWQCPRTPYAASRDFDVKYVVPSFSAGGLVQAMVTYEGDRNESAVFVAIRNRLHVLGPDLKSVQSLATGPAGDPGCQTCAACGPGPHGPPGDTDTKVLVLDPALPALVSCGSSLQGRCFLHDLEPQGTAVHLAAPACLFSAHHNRPDDCPDCVASPLGTRVTVVEQGQASYFYVASSLDAAVAASFSPRSVSIRRLKADASGFAPGFVALSVLPKHLVSYSIEYVHSFHTGAFVYFLTVQPASVTDDPSALHTRLARLSATEPELGDYRELVLDCRFAPKLVPRGSPEGGQPYPVLRVAHSAPVGAQLATELSIAEGQEVLFGVFVTGKDGGPGVGPNSVVCAFPIDLLDTLIDEGVERCCESPVHPGLRRGLDFFQSPSFCPNPPGLEALSPNTSCRHFPLLVSSSFSRVDLFNGLLGPVQVTALYVTRLDNVTVAHMGTMDGRILQVELVRSLNYLLYVSNFSLGDSGQPVQRDVSRLGDHLLFASGDQVFQVPIQG
In assay [10], B1 yielded a Kd of 17.6 nM.

B2: RON Sema-PSI-IPT1–4 (Glu25-Ser956) (domain or fragment)
chain: EDWQCPRTPYAASRDFDVKYVVPSFSAGGLVQAMVTYEGDRNESAVFVAIRNRLHVLGPDLKSVQSLATGPAGDPGCQTCAACGPGPHGPPGDTDTKVLVLDPALPALVSCGSSLQGRCFLHDLEPQGTAVHLAAPACLFSAHHNRPDDCPDCVASPLGTRVTVVEQGQASYFYVASSLDAAVAASFSPRSVSIRRLKADASGFAPGFVALSVLPKHLVSYSIEYVHSFHTGAFVYFLTVQPASVTDDPSALHTRLARLSATEPELGDYRELVLDCRFAPKLVPRGSPEGGQPYPVLRVAHSAPVGAQLATELSIAEGQEVLFGVFVTGKDGGPGVGPNSVVCAFPIDLLDTLIDEGVERCCESPVHPGLRRGLDFFQSPSFCPNPPGLEALSPNTSCRHFPLLVSSSFSRVDLFNGLLGPVQVTALYVTRLDNVTVAHMGTMDGRILQVELVRSLNYLLYVSNFSLGDSGQPVQRDVSRLGDHLLFASGDQVFQVPIQGPGCRHFLTCGRCLRAWHFMGCGWCGNMCGQQKECPGSWQQDHCPPKLTEFHPHSGPLRGSTRLTLCGSNFYLHPSGLVPEGTHQVTVGQSPCRPLPKDSSKLRPVPRKDFVEEFECELEPLGTQAVGPTNVSLTVTNMPPGKHFRVDGTSVLRGFSFMEPVLIAVQPLFGPRAGGTCLTLEGQSLSVGTSRAVLVNGTECLLARVSEGQLLCATPPGATVASVPLSLQVGGAQVPGSWTFQYREDPVVLSISPNCGYINSHITICGQHLTSAWHLVLSFHDGLRAVESRCERQLPEQQLCRLPEYVVRDPQGWVAGNLSARGDGAAGFTLPGFRFLPPPHPPSANLVPLKPEEHAIKFEYIGLGAVADCVGINVTVGGESCQHEFRGDMVVCPLPPSLQLGQDGAPLQVCVDGECHILGRVVRPGPDGVPQS
As to B2, the Kd in assay [10] turned out to be 52.8 nM; in assay [11], 381 nM.

Values taken from PMC3210151 (2011).
